Target: Staphylococcus aureus thioredoxin (Trx) (UniProt P0A0K6)
Sequence (P0A0K6 whole entry): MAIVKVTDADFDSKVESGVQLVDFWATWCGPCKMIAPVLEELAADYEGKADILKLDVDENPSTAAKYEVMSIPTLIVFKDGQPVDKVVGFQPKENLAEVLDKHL

Work on “Staphylococcus aureus thioredoxin reductase (TrxB)” yielded an A412 (DTNB titration of free SH groups formed in insulin), complete reaction: NADPH + Trx + TrxB + insulin of 0.816 A412, an A412 (DTNB titration of free SH groups formed in insulin), control with NADPH omitted: Trx + TrxB + insulin of 0.15 A412 and an A412 (DTNB titration of free SH groups formed in insulin), control with Trx omitted: NADPH + TrxB + insulin of 0.493 A412.
